Molecular target: Tie-2 tyrosine kinase receptor on HUVECs (human) (UniProt Q02763)
Assay: cell-based or functional assay

Chain of UniProt Q02763 (Q02763 23-1124): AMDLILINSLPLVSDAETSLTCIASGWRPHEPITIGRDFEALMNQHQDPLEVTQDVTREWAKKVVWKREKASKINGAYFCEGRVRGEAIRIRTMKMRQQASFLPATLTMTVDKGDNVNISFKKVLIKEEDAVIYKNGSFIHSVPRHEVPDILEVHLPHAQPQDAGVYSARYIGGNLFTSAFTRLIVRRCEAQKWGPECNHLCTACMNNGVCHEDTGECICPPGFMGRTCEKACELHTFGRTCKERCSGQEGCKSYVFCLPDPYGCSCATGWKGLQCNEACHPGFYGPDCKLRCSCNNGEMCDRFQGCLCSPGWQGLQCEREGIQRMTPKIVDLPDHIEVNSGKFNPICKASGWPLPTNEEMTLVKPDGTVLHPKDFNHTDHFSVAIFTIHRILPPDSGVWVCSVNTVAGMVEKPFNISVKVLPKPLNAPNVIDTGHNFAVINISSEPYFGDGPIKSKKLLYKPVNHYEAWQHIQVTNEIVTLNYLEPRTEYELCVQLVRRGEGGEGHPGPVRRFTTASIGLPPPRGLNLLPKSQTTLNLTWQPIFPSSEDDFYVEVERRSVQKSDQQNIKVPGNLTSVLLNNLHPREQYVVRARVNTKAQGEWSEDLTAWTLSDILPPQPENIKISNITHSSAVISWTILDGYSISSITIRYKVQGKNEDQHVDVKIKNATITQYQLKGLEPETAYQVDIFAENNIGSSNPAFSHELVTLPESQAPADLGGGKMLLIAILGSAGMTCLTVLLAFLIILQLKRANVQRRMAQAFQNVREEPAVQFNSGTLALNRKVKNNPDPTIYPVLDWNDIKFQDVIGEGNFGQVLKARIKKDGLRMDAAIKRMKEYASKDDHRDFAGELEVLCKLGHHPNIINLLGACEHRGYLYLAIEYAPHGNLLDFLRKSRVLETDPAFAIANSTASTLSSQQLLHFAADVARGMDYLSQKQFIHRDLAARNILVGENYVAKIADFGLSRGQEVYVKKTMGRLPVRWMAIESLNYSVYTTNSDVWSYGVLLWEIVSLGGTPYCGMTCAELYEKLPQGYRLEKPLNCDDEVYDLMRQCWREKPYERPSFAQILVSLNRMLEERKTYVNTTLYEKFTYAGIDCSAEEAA

## Angiopoietin-1 secreted by HT29 human colon cancer cells stably transfected with full-length Ang-1 cDNA in pcDNA3.1 (from UniProt Q15389 16-498) (ligand)
  Tie-2 phosphorylation in HUVECs after 48 h transwell co-culture (Tie-2 immunoprecipitation, anti-phosphotyrosine Western blot, densitometry), versus co-culture with pcDNA-transfected HT29 cells: 2 fold

Source: US20030220250A1
